Results from US6368619B1, “Hydrophobic preparations of hydrophilic species and process for their preparation” (Provalis UK Limited, priority 1993, dated 2002).

Columns and labels:
Type in all cases: physicochemical
[1] = Dispersion of hydrophilic species/amphiphile array in hydrophobic solvent: visual optical clarity
[2] = Percent sedimentation after 24 hours of macromolecules dispersed in oleic acid with and without PC; details: 300 μl oleic acid, error ±5%; for Percent sedimentation after 24 hours, +PC: Example 17: with egg yolk PC SUVs; for Percent sedimentation after 24 hours, −PC: Example 17: without PC
Method: 10 mg of cytochrome C, haemoglobin and FITC-dextran were each dissolved in 1 ml of distilled water. 4.4 mg of RNA (extracted from Torula yeast) was dissolved in 1 ml of phosphate-buffered saline. 2×50 μl of each of these solution was dispensed into fresh glass tubes, and to one of each of these sets of solutions was added 250 μl of SUVs prepared as in example 1 at a concentration of 40 mg/ml of egg yolk lecithin (PC).
Both sets of tubes were shell-frozen and lyophilised overnight as above. The following day 300 μl of oleic acid was added to each of the tubes. The samples were left to stand at room temperature with occasional vortexing for one hour until complete dispersion had been achieved. The oils were allowed to stand overnight. The turbidity of the samples prepared without PC was greater than those containing PC.
The following day, sediments had settled out in the samples prepared without PC. Without disturbing any of the samples, the top 150 μl of each sample was taken off, and the absorbances measured of both the material removed, and the material left behind, after mixing; comparison of the two readings allowed one to calculate the percentage sedimentation for samples with and without PC (error in measurements ±5%) Values obtained are listed below.

[3] = Turbidity of oil preparations by optical density / absorbance (plate reader); details: for OD650: Example 23: HDPoC, one hour; for optical density at 550 nm: Example 25: 0.5 mg protein/well, oleic acid
Method: It is very much preferred that the preparations of the invention are optically clear and this can be monitored by measuring turbidity at visible wave lengths and, in some cases, by checking for sedimentation over a period of time. […]
Aprotinin was dissolved in distilled water at a concentration of 10 mg/ml. Hexadecyl phosphocholine (HDPoC) was dissolved in distilled water at a concentration of 100 mg/ml. To aliquots of 100 μl of aprotinin solution, volumes of HDPOC were added ranging from 0 through to 10, 20, 30, 40 to 50 μl. The mixtures were frozen at −20° C. and lyophilised overnight. The following day 100 μl of oleic acid was added to each sample and shaken for one hour at room temperature on an orbital shaker.
Octyl glucoside was dissolved in distilled water and dispensed into wells of a microplate to give the following amounts of amphiphile per well: −0, 0.5, 1.0, 1.5, 2.0, 2.5, 5, 7.5 and 10 mg. Aprotinin was dissolved in distilled water at a concentration of 5 mg/ml, and 100 μl was dispensed into each well above, containing 0.5 mg of protein. The plate was mixed well, frozen at −20° C. and lyophilised overnight. The following day, […] of oleic acid was added to each well. The plate was shaken at room temperature, and optical density measurements at 550 nm taken at intervals with a plate reader. A low absorbance value indicates a low level of scattering, and corresponds to effective dispersion of protein in oil.
The results, expressed in terms of optical density as a function of octyl glucoside concentration (at constant protein concentration) at different times after addition of oleic acid are given in the table and accompanying graph.

[4] = Example 7: salmon calcitonin together with aprotinin, egg PC (EmulsiFlex), glycerol mono-oleate BP

## NC[C@@H]1O[C@H](O[C@H]2[C@@H](O)[C@H](O[C@@H]3[C@@H](O)[C@H](N)C[C@H](N)[C@H]3O[C@H]3O[C@H](CN)[C@@H](O)[C@H](O)[C@H]3N)O[C@@H]2CO)[C@H](N)[C@@H](O)[C@@H]1O.O=S(=O)(O)O [Neomycin sulphate, reference compound]
[1]; Example 27: soya PC dispersion, 1 g Miglyol 818, overnight at room temperature
  appearance of solution: optically clear solution

## [Ca+2].[Cl-].[Cl-] [calcium chloride]
[1]; Example 35: soy PC SUV, 500 mg Miglyol 818, after standing overnight
  appearance of dispersion: completely clear dispersion
[1]; Example 35: soy PC SUV, 500 mg oleic acid, after several hours
  appearance of dispersion: completely clear dispersion

## Cytochrome C
[2]
  Percent sedimentation after 24 hours, +PC: 3.1%
  Percent sedimentation after 24 hours, −PC: 76%

## Haemoglobin
[2]
  Percent sedimentation after 24 hours, +PC: 0%
  Percent sedimentation after 24 hours, −PC: 44%

## Salmon calcitonin
[1]; Example 1: egg PC SUVs, lyophilised, 300 mg oleic acid BP, one to two hours at room temperature
  appearance of oil phase: single clear lipid phase, which was optically transparent
[1]; Example 2: soy PC SUVs, 95% oleic acid
  protein content of clear preparation: 6.7 mg protein/g oleic acid
[1]; Example 2: soy PC SUVs, lyophilised, 1.2 g of 95% oleic acid
  appearance of preparation: completely clear
[1]; Example 4: 13.4 mg protein, 100 mg soy PC, 200 mg oleic acid
  appearance of oil phase: clear oil phase
[1]; Example 4: soy PC SUVs, 200 mg oleic acid
  calcitonin content of clear oil phase: 42.7 mg calcitonin/g
[1]; [4]
  appearance of dispersion: optically clear opalescent dispersion
[1]; Example 11: 30 mg soy PC, 300 mg MCT oil, following morning
  appearance of dispersion: opalescent
[1]; Example 11: 30 mg soy PC, 300 mg Miglyol 810, following morning
  appearance of dispersion: turbid
[1]; Example 11: 30 mg soy PC, 300 mg Miglyol 812, following morning
  appearance of dispersion: opalescent
[1]; Example 11: 30 mg soy PC, 300 mg Miglyol 818, following morning
  appearance of dispersion: completely clear
[1]; Example 11: 30 mg soy PC, 300 mg Miglyol 829, following morning
  appearance of dispersion: completely clear
[1]; Example 11: 30 mg soy PC, 300 mg Miglyol 840, following morning
  appearance of dispersion: turbid

## aprotinin
[1]; Example 3: lyophilate stored 5 days at 4° C. in desiccator with phosphorus pentoxide, then 300 mg oleic acid
  appearance of oil phase: optically clear oil phase
[1]; [4]
  appearance of dispersion: optically clear opalescent dispersion
[1]; Example 23: HDPoC, lipid:protein ratio 4:1, oleic acid
  appearance of solution: Optically clear solutions
[1]; Example 23: HDPoC, lipid:protein ratio 5:1, oleic acid
  appearance of solution: Optically clear solutions
[1]; Example 36: AOT amphiphile, 200 mg octanol, cleared rapidly, state after 24 hours
  appearance of dispersion: opalescent dispersion
[3]; lipid:protein ratio 0, 100 μl oleic acid
  OD650: 1.117
[3]; lipid:protein ratio 1:1, 100 μl oleic acid
  OD650: 0.869
[3]; lipid:protein ratio 2:1, 100 μl oleic acid
  OD650: 0.438
[3]; lipid:protein ratio 3:1, 100 μl oleic acid
  OD650: 0.207
[3]; lipid:protein ratio 4:1, 100 μl oleic acid
  OD650: 0.094
[3]; lipid:protein ratio 5:1, 100 μl oleic acid
  OD650: 0.099
[3]; octyl glucoside 0.00 mg/well, 1 hr
  optical density at 550 nm: 0.548
[3]; octyl glucoside 0.00 mg/well, 4 hr
  optical density at 550 nm: 0.458
[3]; octyl glucoside 0.00 mg/well, 8 hr
  optical density at 550 nm: 0.489
[3]; octyl glucoside 0.50 mg/well, 1 hr
  optical density at 550 nm: 0.082
[3]; octyl glucoside 0.50 mg/well, 4 hr
  optical density at 550 nm: 0.043
[3]; octyl glucoside 0.50 mg/well, 8 hr
  optical density at 550 nm: 0.103
[3]; octyl glucoside 1.00 mg/well, 1 hr
  optical density at 550 nm: −0.003
[3]; octyl glucoside 1.00 mg/well, 4 hr
  optical density at 550 nm: −0.008
[3]; octyl glucoside 1.00 mg/well, 8 hr
  optical density at 550 nm: −0.008
[3]; octyl glucoside 1.50 mg/well, 1 hr
  optical density at 550 nm: −0.004
[3]; octyl glucoside 1.50 mg/well, 4 hr
  optical density at 550 nm: −0.015
[3]; octyl glucoside 1.50 mg/well, 8 hr
  optical density at 550 nm: −0.015
[3]; octyl glucoside 2.00 mg/well, 1 hr
  optical density at 550 nm: −0.007
[3]; octyl glucoside 2.00 mg/well, 4 hr
  optical density at 550 nm: −0.012
[3]; octyl glucoside 2.00 mg/well, 8 hr
  optical density at 550 nm: −0.013
[3]; octyl glucoside 2.50 mg/well, 1 hr
  optical density at 550 nm: 0.006
[3]; octyl glucoside 2.50 mg/well, 4 hr
  optical density at 550 nm: −0.004
[3]; octyl glucoside 2.50 mg/well, 8 hr
  optical density at 550 nm: −0.002
[3]; octyl glucoside 5.00 mg/well, 1 hr
  optical density at 550 nm: 0.307
[3]; octyl glucoside 5.00 mg/well, 4 hr
  optical density at 550 nm: −0.013
[3]; octyl glucoside 5.00 mg/well, 8 hr
  optical density at 550 nm: −0.014
[3]; octyl glucoside 7.50 mg/well, 1 hr
  optical density at 550 nm: 0.65
[3]; octyl glucoside 7.50 mg/well, 4 hr
  optical density at 550 nm: −0.015
[3]; octyl glucoside 7.50 mg/well, 8 hr
  optical density at 550 nm: −0.014
[3]; octyl glucoside 10.00 mg/well, 1 hr
  optical density at 550 nm: 1.628
[3]; octyl glucoside 10.00 mg/well, 4 hr
  optical density at 550 nm: 0.817
[3]; octyl glucoside 10.00 mg/well, 8 hr
  optical density at 550 nm: −0.014

## carboxyfluorescein [reference compound]
[1]; Example 33: soy PC SUV, melts of tripalmitin, triheptadecanoin or tristearin with 2% oleic acid, 78 C, after several minutes
  appearance of dispersions: completely clear

## ferritin
[1]; Example 18: egg yolk PC SUVs, ammonium acetate 10 mg/ml, oleic acid
  appearance of solution: optically clear solutions were obtained (although ferritin solution showed some opalescence, and was strongly coloured)

## ribonuclease
[1]; Example 31: soy PC SUV, 1.6 g Miglyol 818, after several hours
  appearance of dispersion: clear dispersion
